In publication PMC6689050, “A switch element in the autophagy E2 Atg3 mediates allosteric regulation across the lipidation cascade” (Nature Communications, 2019):
Changes are numbered by the printed parent chain. Numbers in names are those of the source.

What was measured:
[1] = target: T1, Atg12–Atg5 conjugate (His-Atg12 100–186 conjugated to Atg5 1–284), minimal yeast autophagy E3 (S. cerevisiae, UniProt P38316 100-186; Q12380 1-284, conjugated to Atg5 (Atg12–Atg5 conjugate) | conjugated to Atg12 (Atg12–Atg5 conjugate)); test: SEC; purified His-Atg12–Atg5 combined with Atg16 1–46 in a 1:2 molar ratio, Superdex-200; peak fractions of the complex harvested; settings: both partners purified
T1 construct: Atg12, S. cerevisiae, residues 100–186; Atg5, S. cerevisiae, residues 1–284, untagged; Covalent conjugate formed in E. coli by co-expressed Atg7 and Atg10; No removal of the His tag is told; also called His-Atg12–Atg5; minimal yeast E3; source: E. coli BL21, co-expressed with Atg7 1–630 and Atg10; purified (Ni-NTA, cation exchange); not shown: His6, N-terminal, kept
T1 sequence (looked up) 1: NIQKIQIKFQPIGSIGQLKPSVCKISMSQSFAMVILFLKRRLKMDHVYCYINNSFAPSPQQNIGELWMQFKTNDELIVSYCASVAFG
T1 sequence (looked up) 2: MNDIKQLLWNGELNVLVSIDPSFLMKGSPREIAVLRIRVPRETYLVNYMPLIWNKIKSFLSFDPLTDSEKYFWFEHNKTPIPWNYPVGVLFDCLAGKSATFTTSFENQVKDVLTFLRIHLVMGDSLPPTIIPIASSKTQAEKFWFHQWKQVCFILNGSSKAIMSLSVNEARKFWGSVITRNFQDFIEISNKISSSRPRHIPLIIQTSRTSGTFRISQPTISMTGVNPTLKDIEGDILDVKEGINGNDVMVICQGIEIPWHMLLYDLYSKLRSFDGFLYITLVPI

[2] = target: T2, Atg3^∆FR (yeast Atg3 lacking the flexible region) (S. cerevisiae, UniProt P40344 1-310, ∆FR (FR, residues 85–159)); test: NMR
T2 sequence: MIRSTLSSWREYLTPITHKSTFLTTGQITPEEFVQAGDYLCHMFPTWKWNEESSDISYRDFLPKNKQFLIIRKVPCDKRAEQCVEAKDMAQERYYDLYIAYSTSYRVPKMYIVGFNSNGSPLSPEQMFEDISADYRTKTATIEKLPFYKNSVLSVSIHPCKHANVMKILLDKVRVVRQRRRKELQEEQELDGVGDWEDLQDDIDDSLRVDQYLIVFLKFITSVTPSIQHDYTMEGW

[3] = target: T2, Atg3^∆FR (yeast Atg3 lacking the …); test: NMR; average over E123IR residues
[4] = target: T1, Atg12–Atg5 conjugate (His-Atg12 100–186 …); test: NMR titration; 0.1 mM 15N-labeled Atg3^FR 86–159 titrated with 0–150 µM unlabeled Atg12–Atg5; [15N,1H] TROSY; 25 °C, 20 mM MES pH 6.5, 100 mM NaCl, 10% D2O; settings: both partners purified
[5] = target: T3, Atg3^FR (residues 86–159), the intrinsically disordered flexible region of yeast Atg3 (S. cerevisiae, UniProt P40344 86-159); test: NMR; average over E123IR residues; Atg12–Atg5 with Atg16
T3 chain: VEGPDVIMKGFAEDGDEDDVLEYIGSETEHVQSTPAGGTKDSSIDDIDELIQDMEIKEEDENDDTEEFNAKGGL

B1: Atg16 (residues 1–46) (domain or fragment, S. cerevisiae, UniProt Q03818 1-46, looked up)
chain: MGNFIITERKKAKEERSNPQTDSMDDLLIRRLTDRNDKEAHLNELF
notes: Atg16, S. cerevisiae, residues 1–46; also called Atg16 1–46; source: purified
binding result [1]: binds

B2: Atg3^FR 86–159 mutant I132D, L135D, I136D (printed elsewhere as I136R) (domain or fragment)
chain: T3 chain with I47D, L50D, I51D
Kd [2]: 994 µM

B3: Atg3^FR (residues 86–159), the intrinsically disordered flexible region of yeast Atg3 (domain or fragment, S. cerevisiae, UniProt P40344 86-159, looked up)
chain: T3 chain
notes: Atg3 (autophagy E2), S. cerevisiae, flexible region, residues 86–159; 15N-labelled (or 13C,15N-labelled) for NMR; The introduction gives the FR as residues 85–159, the construct is 86–159; also called Atg3^FR 86–159; holds the Atg3^E123IR element; source: purified
Kd [3]: 238 µM
binding result [4]: binds

B4: Atg12–Atg5 conjugate (His-Atg12 100–186 conjugated to Atg5 1–284), minimal yeast autophagy E3 (complex)
chain 1: T1 sequence (looked up) 1
chain 2: T1 sequence (looked up) 2
modifications: conjugated to Atg5 (Atg12–Atg5 conjugate) | conjugated to Atg12 (Atg12–Atg5 conjugate)
Kd [5]: 69 µM
